The assay deals with TRPV1 disordered region polypeptide (UniProt Q8NER1). As to the kind of experiment: modified sandwich ELISA, fluorescence grade (key: 50000 < x < 100000, Weak binding).

B1: S068 (designed binder)
chain: GDTRPRFLWQLKFECHFFNGTERVRLLERCIYNQEESVRFDSDVGEYRAVTELGRPDAEYWNSQKDLLEQRRAAVDTYCRHNYGVGESFTVQRRVEPKVTVYPSKTQPLQHHNLLVCSVSGFYPGSIEVRWFRNGQEEKAGVVSTGLIQNGDWTFQTLVMLETVPRSGEVYTCQVEHPSVTSPLTVEWRASGGGGSGGGGSGGGGIKEEHVIIQAEFYLNPDQSGEFMFDFDGDEIFHVDMAKKETVWRLEEFGRFASFEAQGALANIAVDKANLEIMTKRSNYTPITNVPPEVTVLTNSPVELREPNVLICFIDKFTPPVVNVTWLRNGKPVTTGVSETVFLPREDHLFRKFHYLPFLPSTEDVYDCRVEHWGLDEPLLKHWEFDAPSGGSHHHHHHLE
Molecule B1 showed a fluorescent signal (fluorescentsignal) of 50000 to 100000.

For the origin of these results see patent publication US20260102461A1.
